Assay results from publication PMC10164584, “Structural basis for the tRNA-dependent activation of the terminal complex of selenocysteine synthesis in humans” (Nucleic Acids Research, 2023).

Assays:
[1] = biological target: T1, human SepSecS (Homo sapiens, UniProt Q9HD40, V491A); settings: holo SepSecS without bound tRNA; P-loop site near active site
T1 sequence (Q9HD40 1-501 V491A): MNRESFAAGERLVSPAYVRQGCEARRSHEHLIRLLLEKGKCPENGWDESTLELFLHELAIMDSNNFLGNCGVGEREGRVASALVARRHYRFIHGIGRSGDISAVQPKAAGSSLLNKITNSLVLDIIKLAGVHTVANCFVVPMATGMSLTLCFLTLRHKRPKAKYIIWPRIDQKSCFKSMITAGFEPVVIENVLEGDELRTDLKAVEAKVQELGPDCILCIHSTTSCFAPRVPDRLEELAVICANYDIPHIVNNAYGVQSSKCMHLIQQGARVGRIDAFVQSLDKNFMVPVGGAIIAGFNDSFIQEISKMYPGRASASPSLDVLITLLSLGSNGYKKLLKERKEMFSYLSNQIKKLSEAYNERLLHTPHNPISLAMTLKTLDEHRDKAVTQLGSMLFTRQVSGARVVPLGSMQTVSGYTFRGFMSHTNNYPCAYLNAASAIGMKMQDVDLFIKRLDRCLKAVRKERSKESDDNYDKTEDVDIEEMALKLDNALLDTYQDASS

[2] = test system: SepSecS WT (human); assay: MST; settings: MST: 20 mM HEPES pH 8.0, 150 mM NaCl, 5% glycerol, 0.05% Tween-20, 0.4 mg/ml BSA, room temperature, 5 nM labeled SepSecS; van't Hoff series 24-34 C
[3] = test system: Q399A SepSecS (human); assay: MST; settings: MST: 20 mM HEPES pH 8.0, 150 mM NaCl, 5% glycerol, 0.05% Tween-20, 0.4 mg/ml BSA, room temperature, 5 nM labeled SepSecS; van't Hoff series 24-34 C
[4] = test system: SepSecS T397V (human); assay: MST; settings: MST: 20 mM HEPES pH 8.0, 150 mM NaCl, 5% glycerol, 0.05% Tween-20, 0.4 mg/ml BSA, room temperature, 5 nM labeled SepSecS; van't Hoff series 24-34 C
[5] = test system: SepSecS R398A (human); assay: MST; settings: MST: 20 mM HEPES pH 8.0, 150 mM NaCl, 5% glycerol, 0.05% Tween-20, 0.4 mg/ml BSA, room temperature, 5 nM labeled SepSecS; van't Hoff series 24-34 C
[6] = test system: SepSecS S393A (human); assay: MST; settings: MST: 20 mM HEPES pH 8.0, 150 mM NaCl, 5% glycerol, 0.05% Tween-20, 0.4 mg/ml BSA, room temperature, 5 nM labeled SepSecS; van't Hoff series 24-34 C
[7] = test system: SepSecS S27A (human); assay: MST; settings: MST: 20 mM HEPES pH 8.0, 150 mM NaCl, 5% glycerol, 0.05% Tween-20, 0.4 mg/ml BSA, room temperature, 5 nM labeled SepSecS; van't Hoff series 24-34 C
[8] = test system: SepSecS H30A (human); assay: MST; settings: MST: 20 mM HEPES pH 8.0, 150 mM NaCl, 5% glycerol, 0.05% Tween-20, 0.4 mg/ml BSA, room temperature, 5 nM labeled SepSecS; van't Hoff series 24-34 C
[9] = test system: SepSecS E37L (human); assay: MST; settings: MST: 20 mM HEPES pH 8.0, 150 mM NaCl, 5% glycerol, 0.05% Tween-20, 0.4 mg/ml BSA, room temperature, 5 nM labeled SepSecS; van't Hoff series 24-34 C
[10] = test system: SepSecS K38M (human); assay: MST; settings: MST: 20 mM HEPES pH 8.0, 150 mM NaCl, 5% glycerol, 0.05% Tween-20, 0.4 mg/ml BSA, room temperature, 5 nM labeled SepSecS; van't Hoff series 24-34 C
[11] = test system: SepSecS R26A (human); assay: MST; settings: MST: 20 mM HEPES pH 8.0, 150 mM NaCl, 5% glycerol, 0.05% Tween-20, 0.4 mg/ml BSA, room temperature, 5 nM labeled SepSecS; van't Hoff series 24-34 C
[12] = test system: SepSecS F396V (human); assay: MST; settings: MST: 20 mM HEPES pH 8.0, 150 mM NaCl, 5% glycerol, 0.05% Tween-20, 0.4 mg/ml BSA, room temperature, 5 nM labeled SepSecS; van't Hoff series 24-34 C
[13] = test system: SepSecS R33A (human); assay: MST; settings: MST: 20 mM HEPES pH 8.0, 150 mM NaCl, 5% glycerol, 0.05% Tween-20, 0.4 mg/ml BSA, room temperature, 5 nM labeled SepSecS; van't Hoff series 24-34 C

Compound	X-ray crystallography, 2.25 A [1]	Kd [2] [µM]	Kd [3] [µM]	Kd [4] [µM]	Kd [5] [µM]	Kd [6] [µM]	Kd [7] [µM]	Kd [8] [µM]	Kd [9] [µM]	Kd [10] [µM]	Kd [11] [µM]	Kd [12] [µM]	Kd [13] [µM]
O=P(O)(O)O [phosphate ion]	structure of holo SepSecS possessed a phosphate ion bound to the P-loop												
tRNASec WT (unacylated)		0.134	0.567	0.0628	2.53	0.197	0.133	0.166	0.166	1.67	0.516	0.0441	0.0289
